Results on one molecule are retold here after article PMC8769549, “The intrinsically disordered SARS-CoV-2 nucleoprotein in dynamic complex with its viral partner nsp3a”.

In the data set the target is N234 (nucleoprotein domains N2-N3-N4) (SARS-CoV-2 (NC_045512.2), UniProt P0DTC9 47-364). The experiment in a line: NMR; 1D NMR; 100 uM RNA, 50 uM N234. Conditions: protein: recombinant; tags: N-terminal His6-TEV, cleaved; chain copies: 2; single strand.

As for AAAAAA (ssRNA) [polyA hexameric RNA], the binding result was “binds”.
